Entries after “also recorded” stand apart in the source; their conditions may differ.

Data set [1] deals with UPSC Ark1 cells. Kind of data set: Cisplatin dose response in uterine cancer cells stably transfected with lentiviral vector. Type of data set: cell-based. The following applies: UPSC Ark1 cells expressing miR-520h vs non-targeting miRNA control. Here is the method:
UPSC Ark1 cells stably transfected with lentiviral vector driving the expression of either miR-520h or a non-targeting miRNA control were incubated with increasing concentrations of cisplatin.

Data set [2] relates to established ovarian cancer cell lines. Kind of data set: Proliferation or apoptosis in established ovarian cancer cell lines after mimic transfection. Type of data set: cell-based, human. The conditions noted are these: mimics vs control cultures; cell lines SKOV4, HEY, OVCAR8, OVCAR5. Here is the method: Established ovarian cancer cell lines were obtained from the ATCC (OVCAR8, OVCAR5) and the University of Texas M.D. Anderson Cancer Center (HEYA8, SKOV3ip1). All cell lines were maintained at 37° C. in RPMI 1640 media (Invitrogen, Carlsbad, Calif.) supplemented with 10% fetal bovine serums (Hyclone, Logan, Utah) and 1% penicillin/streptomycin (Gibco, Carlsbad, Calif.). MicroRNA mimics and mimic controls (Dharmacon, Lafayette, Colo.) were transiently transfected into actively growing cultures using Lipofectamine 2000 (Invitrogen, Carlsbad, Calif.). After a 24-hour incubation, transfected cultures were washed, passaged and seeded into 96 well plates. Proliferation and apoptosis were measured at 72, 96 and 120 hours after transfection using standard assays (Cell Titer 96 Aqueous One; Caspase Glo 3/7; Promega, Madison, Wis.). pLemiR expression vectors (Open Biosystems/Thermo, Huntsville, Ala.) were prepared according to manufacturer's instructions and transfected into cells using Fugene 6 (Roche, Indianapolis, Ind.). Following transfection, stable clones were selected using puromycin (Invitrogen) at doses optimized for each line. […] Viability was assessed across a clinically relevant range of cisplatin concentrations using an MTS assay (Promega). […]

The test system of data set [3] is BRCA1. Kind of data set: qPCR gene response to cisplatin in OVCAR8 cells. Type of data set: cell-based, human. The conditions noted are these: OVCAR8 stable clones vs non-silencing control. Here is the method:
(§1) Total RNA was extracted from cell pellets using the mirVana miRNA extraction kit (Ambion, Austin, Tex.) according to the manufacturer's instructions. Levels of microRNA expression were examined using Mature MicroRNA Taqman assays (Applied Biosystems, Foster City, Calif.) using U6 as a control. For all gene expression assays, cDNA was prepared using qScript cDNA supermix (Quanta Biosciences, Gaithersburg, Md.). TaqMan gene expression assays (Applied Biosystems) were used to measure expression of specific target genes according to the manufacturer's instructions. All reactions were performed in triplicate using OneStepPlus real time PCR system (Applied Biosystems). All qPCR results are reported using the ΔΔCT method (17).
In general terms: Quantitative PCR measures a nucleic acid by following its amplification.

In data set [4] the test system is CASP7. Kind of data set: qPCR gene response to cisplatin in OVCAR8 cells. Type of data set: cell-based, human. The conditions noted are these: OVCAR8 stable clones vs non-silencing control. The protocol:
as §1

Data set [5] deals with CDC25c. Kind of data set: qPCR gene response to cisplatin in OVCAR8 cells. The conditions noted are these: OVCAR8 stable clones vs non-silencing control. Type of data set: cell-based, human. Here is the method:
as §1

In data set [6] the test system is CHK1. Kind of data set: qPCR gene response to cisplatin in OVCAR8 cells. In kind it is cell-based, human. The conditions noted are these: OVCAR8 stable clones vs non-silencing control. Here is the method: as §1
For data set [7], the system named is CHK2. Kind of data set: qPCR gene response to cisplatin in OVCAR8 cells. Type of data set: cell-based, human. The conditions noted are these: OVCAR8 stable clones vs non-silencing control. Here is the method:
as §1

In data set [8] the test system is OVCAR8 xenografts. Kind of data set: Intraperitoneal ovarian cancer xenograft growth and metastasis. In kind it is in vivo, mice. The conditions noted are these: for Total intraperitoneal tumor burden: between the three groups. Here is the method: (§2) Permission to perform animal experiments was obtained from the Institutional Animal Care and Use Committee (IACUC) for Baylor College of Medicine. Eight-week female athymic (Foxn1^nu/nu) mice were purchased from the National Cancer Institute-Charles River and maintained on a standard diet ad lib. Each animal was inoculated intraperitoneally with 2.5×10^6 cells stably transfected with vector driving miR-520h, a non-targeting miRNA control or empty vector. Expression of miR-520h was measured in cell lines using Taqman assays immediately prior to inoculation. Tumor xenografts were followed weekly for tumor progression or regression using the Image Station In-Vivo FX system (Kodak Molecular Imaging Systems, New Haven, Conn.) using endogenous RFP encoded by the pLemiR vector as a tag. At each time point, mice were anesthetized with isoflurane and placed in an imaging chamber, after which, fluorescent intensity images with x-ray overlay were obtained and analyzed. At the completion of the study, mice were euthanized after sedation under isoflurane (Abbott Laboratories, North Chicago, Ill.). For experiments involving treatment, cisplatin was administered at 5 mg/kg to mice by tail vein injection weekly for 4 weeks, after which, 1.5 mg/kg was administered biweekly. Tumor volume and distribution for all animals in each experiment were documented and correlated with imaging results.
The in vitro observations indicate that miR520g/h and/or miR-520a alter the proliferations of established ovarian cancer cell lines and in some embodiments are reasonably expected to promote their growth and metastasis in vivo. The inventors utilized xenograft models to characterize this embodiment. Foxn1^nu/nu mice were implanted subcutaneously or intraperitoneally with 2.5 million cells stably transfected with miR-520g/h, non-silencing microRNA control or empty vector alone. […] This difference was documented not only when tumor burden was measured according to the number and size of RFP active tumors that met imaging thresholds, but could also directly measured at necropsy (FIG. 5F). […]

For data set [9], the system named is OVCAR8 xenografts. Kind of data set: Survival and tumor response of xenografted mice treated with cisplatin. Type of data set: in vivo. Here is the method: as §2
To determine whether expression of miR-520h impacted responses of ovarian cancer xenografts to systemically administered chemotherapy, the inventors inoculated Fox1nu/nu mice with 4×10^6 OVCAR8 cells stably expressing either miR-520h mimic, a non-targeting mimic control or empty vector. Once tumor implants were readily palpable, weekly administration of cisplatin equivalent to a dose of 5 mg/kg was initiated and given weekly for a total of 4 weeks. This course of treatment was specifically used to mimic the typical course experienced by women undergoing treatment for this illness. […] This observation is consistent with a sensitization of ovarian cancer cells to cisplatin by miR-520h mimic. Cisplatin was continued approximately biweekly at a reduced dose of 1.5 mg/kg until disease progression requiring euthanasia of animals by IACUC criteria. […] In contrast, median survival for animals xenografted with OVCAR8 cells stably transfected with empty vector or OVCAR8 cells stably expressing non-targeting microRNA control was 79 days and 90 days, respectively.

Data set [10] has as its system SVOK3ip1 cells. Kind of data set: Spheroid formation. In kind it is cell-based, human. The conditions noted are these: cells stably expressing mimics.

B1: hsa-mir-520h MI0003175 (nucleic acid, listed as Homo sapiens)
chain: UCCCAUGCUGUGACCCUCUAGAGGAAGCACUUUCUGUUUGUUGUCUGAGAAAAAACAAAGUGCUUCCCUUUAGAGUUACUGUUUGGGA
modifications: expressed or natural sequence
notes: synthetic mimic or stably expressed from pLemiR vector; written miR-520g/h interchangeably
As to B1, in [1], the “Reduction of IC50 for cisplatin” value was “more than 90%”. Besides, the “Impact on proliferation or apoptosis” value in data set [2] is reported as “significantly impacted”. Further, the “BRCA1 expression response to cisplatin” value is given as “blunts the responses” in [3] and “significantly less” in data set [3] (listed as miR-520g/h). For the same molecule, the results for the “Caspase 7 expression response to cisplatin” value in data set [4] and in data set [4] (listed as miR-520g/h) were “targeted; also recorded: blunts the responses” and “significantly less”, respectively. Besides, the “CDC25C expression response to cisplatin” value in [5] is reported as “blunts the responses”. Further, the “CHK1 expression response to cisplatin” value in data set [6] was “inhibited; also recorded: blunts the responses”. The “CHK2 expression response to cisplatin” value in data set [7] is listed as “blunts the responses”. Further, in data set [8] (OVCAR8 cells stably expressing the microRNA, intraperitoneal, no cisplatin, vs non-silencing control or empty vector, listed as miR-520g/h), the “Number and size of intraperitoneal implants” value is listed as “larger number of smaller xenografts; also recorded: large number of smaller implants”. In addition, the “Total intraperitoneal tumor burden” value in [8] is on record as “did not differ significantly”; in [8] (listed as miR-520g/h), “did not differ”. The Mean survival was 114 days in [9] (4×10^6 OVCAR8 cells, cisplatin 5 mg/kg weekly 4 weeks then 1.5 mg/kg biweekly) and 130 days in [9] (biweekly maintenance IV regimen of 5 mg/m^2 cisplatin). Besides, the “Xenograft response to cisplatin regimen” value in [9] (cisplatin 5 mg/kg weekly for 4 weeks) is on record as “nearly complete elimination of disease”. Also, in [9] (cisplatin-treated xenografted animals), the “Increase in survival vs empty vector control” value was roughly 44%. In data set [9] (mice xenografted with 2.5×10^6 OVCAR8 cells expressing the mimic, cisplatin doses, controls 90 and 79 days), this molecule came in with a Median survival of 113 days. Besides, in data set [9] (vs non-targeting mimic control or empty vector), the “Implant size at necropsy” value is recorded as “significantly smaller”. The “Capacity to form spheroids” value in data set [10] is on record as “decreased capacity to form spheroids”.

These data come from patent US9758785B2, “miR-520 microRNAs sensitize cancers to platinum-based therapy” (BAYLOR COLLEGE OF MEDICINE, priority 2012, dated 2017).
